Patent US12139520B2 (priority 2020, dated 2024)
Numbered stars: 1 amine (or outer) side, 2 acyl side, 3 side chain; on linkers, the order of the positions; unused ones are H or OH. Bridge positions count the residues as written; N and C are the ends. Square brackets hold non-standard residues; d marks the D form. Side chains are listed from the residue outwards. Ends that are not written are not given here. * marks the point of attachment. C20 diacid = O=C(O)CCCCCCCCCCCCCCCCCCC(=O)*; γGlu = O=C(O)[C@H](CCC(=O)[*:2])N[*:1]; Hyp = O=C(O)[C@@H]1C[C@@H](O)CN1; NMeI = CC[C@H](C)[C@H](NC)C(=O)O; Aad = N[C@@H](CCCC(=O)O)C(=O)O; AEEA = NCCOCCOCC(=O)O; Sar = CNCC(=O)O

T1: hAMY3R (human, UniProt P30988)
T1 sequence 1: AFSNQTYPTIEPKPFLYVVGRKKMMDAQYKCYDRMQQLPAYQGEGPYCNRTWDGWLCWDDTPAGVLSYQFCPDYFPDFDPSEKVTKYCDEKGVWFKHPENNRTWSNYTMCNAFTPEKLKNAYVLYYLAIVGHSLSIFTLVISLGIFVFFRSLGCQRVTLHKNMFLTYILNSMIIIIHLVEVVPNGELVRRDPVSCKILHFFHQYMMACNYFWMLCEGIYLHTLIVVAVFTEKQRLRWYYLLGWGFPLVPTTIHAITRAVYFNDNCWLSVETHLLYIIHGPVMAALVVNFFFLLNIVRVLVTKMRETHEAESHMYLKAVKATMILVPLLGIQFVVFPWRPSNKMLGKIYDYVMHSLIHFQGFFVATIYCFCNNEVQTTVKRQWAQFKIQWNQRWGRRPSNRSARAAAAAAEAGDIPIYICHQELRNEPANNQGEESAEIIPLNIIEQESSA
T1 sequence 2: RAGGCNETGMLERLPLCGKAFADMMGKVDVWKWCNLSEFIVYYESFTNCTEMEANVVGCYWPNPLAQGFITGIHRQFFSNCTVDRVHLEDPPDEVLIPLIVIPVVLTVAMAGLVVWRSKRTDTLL

B1: SEQ ID NO: 70 (peptide)
peptide: GCRFGTCTVQRLAHQIYQFTDKDKDNVAPRTNVGPQG[Hyp]-NH2
modifications: disulfide 2-7 (inferred); ends not checked
B2: SEQ ID NO: 76 (peptide)
peptide: {C20 diacid-γGlu}-RCGTATCATERLA[Aad]FLQRSSF[Sar]A[NMeI]LSSTEVGSNT[Hyp]-NH2
modifications: disulfide 2-7 (inferred); not fully specified; ends not checked
B3: SEQ ID NO: 58 (peptide)
peptide: KCNTATCATQRLANFLVHSSNNFGAILSSTKVGSNTY
B4: SEQ ID NO: 59 (peptide)
peptide: KCNTATCATQRLANFLVHSSNNFGAILPSTKVGSNGY
B5: SEQ ID NO: 61 (peptide)
peptide: {C20 diacid-γGlu}-KCNTATCTVQRLAHQIAQFTDKDKDNVAPPTNVGSNG[Hyp]-NH2
modifications: disulfide 2-7 (inferred); not fully specified; ends not checked
B6: SEQ ID NO: 54 (peptide)
peptide: GCRFGTCTVQRLAHFLYQFTDKDKDNVAPRTNVGPQGY
B7: SEQ ID NO: 56 (peptide)
peptide: GCRFGTCTVQRLAHFLYQFTDKDKDNVAPRTNVGSNTY
B8: SEQ ID NO: 66 (peptide)
peptide: KCNTATCTVQRLAEQIYQFTDKDKDNVSPPTNVGSNG[Hyp]-NH2
modifications: disulfide 2-7 (inferred); ends not checked
B9: SEQ ID NO: 8 (peptide)
peptide: KCNTSTCTVARLADQITQFSNKDKAQVSPPTEVGPNS[Hyp]-NH2
modifications: disulfide 2-7 (inferred); ends not checked
B10: SEQ ID NO: 5 (peptide)
peptide: {C20 diacid-γGlu}-KCNTATCTVQRLADQIYQFTDKDKDNVAPPTNVGSNG[Hyp]-NH2
modifications: disulfide 2-7 (inferred); ends not checked
B11: SEQ ID NO: 63 (peptide)
peptide: {C20 diacid-γGlu}-KCNTATCTVQRLAEQIYQFTDKDKDNVAPPTAVGSNG[Hyp]-NH2
modifications: disulfide 2-7 (inferred); not fully specified; ends not checked
B12: SEQ ID NO: 60 (peptide)
peptide: {C20 diacid-γGlu}-KCNTATCTVQRLAHQIYQFTDKDKDNVAPPTKVGSNG[Hyp]-NH2
modifications: disulfide 2-7 (inferred); not fully specified; ends not checked
B13: SEQ ID NO: 67 (peptide)
peptide: {C20 diacid-γGlu}-KCNFATCTVQRLAHQIYQFTDKDKDNVAPRTEVGSNG[Hyp]-NH2
modifications: disulfide 2-7 (inferred); not fully specified; ends not checked
B14: SEQ ID NO: 50 (peptide)
peptide: {C20 diacid-γGlu}-KCNTSTCTVQRLAHQIYQFTDKDKDNVAPPTNVGSNG[Hyp]-NH2
modifications: disulfide 2-7 (inferred); ends not checked
B15: SEQ ID NO: 53 (peptide)
peptide: KCNTATCTVQRLAHQIYQFTDKDKDNVAAPTNVGSNG[Hyp]-NH2
modifications: disulfide 2-7 (inferred); ends not checked
B16: SEQ ID NO: 55 (peptide)
peptide: {C20 diacid-γGlu}-KCNTATCTVERLAHQIYQFTDKDKDNVAPPTNVGSNG[Hyp]-NH2
modifications: disulfide 2-7 (inferred); ends not checked
B17: SEQ ID NO: 73 (peptide)
peptide: {C20 diacid-γGlu}-KCNTATCTVQRLAEQIYQFTDKDKDNVAPPTQVGSNG[Hyp]-NH2
modifications: disulfide 2-7 (inferred); not fully specified; ends not checked
B18: SEQ ID NO: 52 (peptide)
peptide: KCNTATCTVQRLAHQIYQFTDKDKDAVAPPTNVGSNG[Hyp]-NH2
modifications: disulfide 2-7 (inferred); ends not checked
B19: SEQ ID NO: 65 (peptide)
peptide: KCNTATCTVQRLAHQIYQFDKDKDNVAPPTNVGSNG[Hyp]-NH2
modifications: disulfide 2-7 (inferred); ends not checked
B20: SEQ ID NO: 6 (peptide)
peptide: KCNTATCTVQRLAEQIYQFTDKDKDNVAPPTNVGSK([AEEA-AEEA-γGlu-C20 diacid])G[Hyp]-NH2
modifications: disulfide 2-7 (inferred); ends not checked
B21: SEQ ID NO: 69 (peptide)
peptide: {C20 diacid-γGlu}-KCNTATCTVQRLAHQIAQFTDKDKDNVAPPTNVGSNS[Hyp]-NH2
modifications: disulfide 2-7 (inferred); not fully specified; ends not checked
B22: SEQ ID NO: 68 (peptide)
peptide: {C20 diacid-γGlu}-KCNFATCTVQRLAHQIYQFTDKDKDNVAPPTEVGSNG[Hyp]-NH2
modifications: disulfide 2-7 (inferred); not fully specified; ends not checked
B23: SEQ ID NO: 62 (peptide)
peptide: {C20 diacid-γGlu}-KCNTSTCTVQRLAHQIAQFTDKDKDNVAPPTNVGSNG[Hyp]-NH2
modifications: disulfide 2-7 (inferred); not fully specified; ends not checked
B24: SEQ ID NO: 74 (peptide)
peptide: KCNTATCTVQRLAK([AEEA-AEEA-γGlu-C20 diacid])QIYQFTDKDKDNVAPPTNVGSNG[Hyp]-NH2
modifications: disulfide 2-7 (inferred); not fully specified; ends not checked
B25: SEQ ID NO: 7 (peptide)
peptide: KCNTATCTVQRLAAQIYQFTDKDKDNVAPPTNVGSNG[Hyp]-NH2
modifications: disulfide 2-7 (inferred); ends not checked
B26: SEQ ID NO: 75 (peptide)
peptide: KCNTATCTVQRLAHQIYQFTDKDKDNVAPPTNVGSNG[Hyp]-NH2
modifications: disulfide 2-7 (inferred); ends not checked
B27: SEQ ID NO: 64 (peptide)
peptide: KCNTATCTVQRLAHQIYQFTDADKDNVAPPTNVGSNG[Hyp]-NH2
modifications: disulfide 2-7 (inferred); ends not checked
B28: SEQ ID NO: 51 (peptide)
peptide: {C20 diacid-γGlu}-KCNTATCTVQRLAEQIYQFTDKDKDNVAPPTNVGSNG[Hyp]-NH2
modifications: disulfide 2-7 (inferred); ends not checked
B29: SEQ ID NO: 57 (peptide)
peptide: {C20 diacid-γGlu}-KCNTATCTVQRLAHQIYQFSDKDKDNVAPPTNVGSNG[Hyp]-NH2
modifications: disulfide 2-7 (inferred); ends not checked
B30: SEQ ID NO: 71 (peptide)
peptide: {C20 diacid-γGlu}-KCNTATCTVQRLAHQIAQYTDKDKDNVAPPTNVGSNG[Hyp]-NH2
modifications: disulfide 2-7 (inferred); not fully specified; ends not checked
B31: SEQ ID NO: 72 (peptide)
peptide: KCQTATCTVQRLAEQIYQFTDKDKDNVAPPTNVGSNGX
modifications: not fully specified; C20DA-yGlu at N-terminal; Hyp at X38

Legend:
hAMY3R = target: T1, hAMY3R; assay: cell-based or functional assay
hAM1R = hAM1R (human, UniProt Q16602); assay: cell-based or functional assay

Binder	hAMY3R EC50 (cAMP) (hAMY3R)	hAM1R EC50 (cAMP) (hAM1R)
B1	0.013 nM	2980 nM
B2	0.014 nM	> 5000 nM
B3	0.012 nM	> 5000 nM
B4	0.012 nM	> 5000 nM
B5	0.012 nM	> 5000 nM
B6	0.012 nM	46.2 nM
B7	0.012 nM	103 nM
B8	0.012 nM	> 5000 nM
B9	0.006 nM	> 5000 nM
B10	0.006 nM	> 5000 nM
B11	0.012 nM	> 5000 nM
B12	0.012 nM	> 5000 nM
B13	0.013 nM	116 nM
B14	0.011 nM	> 5000 nM
B15	0.011 nM	> 5000 nM
B16	0.012 nM	63.8 nM

Binder	hAMY3R EC50 (cAMP) (hAMY3R)	hAM1R EC50 (cAMP) (hAM1R)
B17	0.013 nM	> 5000 nM
B18	0.011 nM	> 5000 nM
B19	0.012 nM	> 5000 nM
B20	0.006 nM	> 5000 nM
B21	0.013 nM	680 nM
B22	0.013 nM	255 nM
B23	0.012 nM	> 5000 nM
B24	0.013 nM	> 5000 nM
B25	0.006 nM	> 5000 nM
B26	0.013 nM	> 5000 nM
B27	0.012 nM	> 5000 nM
B28	0.011 nM	> 5000 nM
B29	0.012 nM	590 nM
B30	0.013 nM	> 5000 nM
B31	0.013 nM	> 5000 nM
